# Measured values: paper PMC11417369, “DNA sequence and chromatin differentiate sequence-specific transcription factor binding in the human malaria parasite Plasmodium falciparum”
# Positions count from the first letter of the chain named.
# T1: SIP2 D1 (Plasmodium falciparum, UniProt C6KSN9 177-235)
# T1 sequence: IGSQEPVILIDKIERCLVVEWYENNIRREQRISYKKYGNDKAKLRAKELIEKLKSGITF
# B1: GTGCAC_negctrl_site133 (dsDNA)
# DNA 1: TCTTTTACAAAAGCTATAACATTCACCACATTATAA
# DNA 2: TTATAATGTGGTGAATGTTATAGCTTTTGTAAAAGA
# B2: GTGCAC_site10223 (dsDNA)
# DNA 1: TTAATTATGGACAGGGTGCACATGAATAATAATACC
# DNA 2: GGTATTATTATTCATGTGCACCCTGTCCATAATTAA
# B3: GTGCAC_site10530 (dsDNA)
# DNA 1: ATTAATAATCGAAAGGTGCACTTTGATTTGATAACA
# DNA 2: TGTTATCAAATCAAAGTGCACCTTTCGATTATTAAT
# B4: GTGCAC_negctrl_site320 (dsDNA)
# DNA 1: TTTTCTAAAATATTCATAATAAATCAAAAAAAAAAA
# DNA 2: TTTTTTTTTTTGATTTATTATGAATATTTTAGAAAA
# B5: GTGCAC_negctrl_site95 (dsDNA)
# DNA 1: GCAGTCAAAAAGGAAAATATAAAAAAAGTATATGTG
# DNA 2: CACATATACTTTTTTTATATTTTCCTTTTTGACTGC
# B6: GTGCAC_negctrl_site184 (dsDNA)
# DNA 1: TATTCTATATTTCTATTTAGAAAACATCCCAGTGTG
# DNA 2: CACACTGGGATGTTTTCTAAATAGAAATATAGAATA
# B7: GTGCAC_negctrl_site359 (dsDNA)
# DNA 1: ATATAAAAAAGGGAGGTAAATGAATGTGAAACCCAA
# DNA 2: TTGGGTTTCACATTCATTTACCTCCCTTTTTTATAT
# B8: GTGCAC_negctrl_site392 (dsDNA)
# DNA 1: TTTATTATTATATTATTTTAATTTTTCTTTAGTACA
# DNA 2: TGTACTAAAGAAAAATTAAAATAATATAATAATAAA
# B9: GTGCAC_negctrl_site299 (dsDNA)
# DNA 1: AGAGAAAGAAGGGAGAAAAAATAAAATAAAATAAAA
# DNA 2: TTTTATTTTATTTTATTTTTTCTCCCTTCTTTCTCT
# B10: GTGCAC_site9617 (dsDNA)
# DNA 1: TTTTTTTTTTTTTGTGTGCACCTTATTTTTTTGTAT
# DNA 2: ATACAAAAAAATAAGGTGCACACAAAAAAAAAAAAA
# B11: GTGCAC_negctrl_site663 (dsDNA)
# DNA 1: ATAAAAATAAATAAATTATATAAATGTAATATGAAA
# DNA 2: TTTCATATTACATTTATATAATTTATTTATTTTTAT
# B12: GTGCAC_negctrl_site46 (dsDNA)
# DNA 1: TTGTAGGAATTTATTTTGACTGATAATTAATACGTT
# DNA 2: AACGTATTAATTATCAGTCAAAATAAATTCCTACAA
# B13: GTGCAC_site10477 (dsDNA)
# DNA 1: AAATATTTCTGCAAGGTGCACTTTATAAATCTTTGA
# DNA 2: TCAAAGATTTATAAAGTGCACCTTGCAGAAATATTT
# B14: GTGCAC_site10263 (dsDNA)
# DNA 1: TTTAATTATTAAATGGTGCACTTGAAATATAAAAAT
# DNA 2: ATTTTTATATTTCAAGTGCACCATTTAATAATTAAA
# B15: GTGCAC_negctrl_site130 (dsDNA)
# DNA 1: TTGTATTAATAATTTTTTATATTATAGTTTATAATA
# DNA 2: TATTATAAACTATAATATAAAAAATTATTAATACAA
# B16: GTGCAC_negctrl_site618 (dsDNA)
# DNA 1: AAAAAAATTACATATCCATTTTAACATAATAAATAG
# DNA 2: CTATTTATTATGTTAAAATGGATATGTAATTTTTTT
# B17: GTGCAC_site9928 (dsDNA)
# DNA 1: TTAACCGGTTTATGGGTGCACATTCTTCTTAAATAA
# DNA 2: TTATTTAAGAAGAATGTGCACCCATAAACCGGTTAA
# B18: GTGCAC_negctrl_site407 (dsDNA)
# DNA 1: AATGGAAAAAAAAAAATAAATACAAATAAATACAAA
# DNA 2: TTTGTATTTATTTGTATTTATTTTTTTTTTTCCATT
# B19: GTGCAC_negctrl_site51 (dsDNA)
# DNA 1: ATAAAAAATTTAAGTATTTTTTACAAACCTATAAAT
# DNA 2: ATTTATAGGTTTGTAAAAAATACTTAAATTTTTTAT
# B20: GTGCAC_negctrl_site537 (dsDNA)
# DNA 1: TGGTAACAGCATAGAAAATGGACAAACGAAATATAA
# DNA 2: TTATATTTCGTTTGTCCATTTTCTATGCTGTTACCA
# B21: GTGCAC_negctrl_site445 (dsDNA)
# DNA 1: TATGGTGTAATTTAGTGTATTATATTATTTTGGTTG
# DNA 2: CAACCAAAATAATATAATACACTAAATTACACCATA
# B22: GTGCAC_site10337 (dsDNA)
# DNA 1: GGGATATTTTAAAGGGTGCATATTATTAAAATAATG
# DNA 2: CATTATTTTAATAATATGCACCCTTTAAAATATCCC
# B23: GTGCAC_negctrl_site96 (dsDNA)
# DNA 1: ATTTTTTTATAAAATTTTTATATAATTTATTATAAA
# DNA 2: TTTATAATAAATTATATAAAAATTTTATAAAAAAAT
# B24: GTGCAC_negctrl_site313 (dsDNA)
# DNA 1: GATATAATTATATTATGGTGTTTTTGATAGATATTT
# DNA 2: AAATATCTATCAAAAACACCATAATATAATTATATC
# B25: GTGCAC_negctrl_site250 (dsDNA)
# DNA 1: TTTTTTTTTTTATATACTGGAAATATATTTAATTTA
# DNA 2: TAAATTAAATATATTTCCAGTATATAAAAAAAAAAA
# B26: GTGCAC_negctrl_site265 (dsDNA)
# DNA 1: TATTTTTTTTCTTTATTTATAACGCTCAATATATTC
# DNA 2: GAATATATTGAGCGTTATAAATAAAGAAAAAAAATA
# B27: GTGCAC_negctrl_site581 (dsDNA)
# DNA 1: AAAAAAAAATATATATAAAATTAAAAAATGTAATAT
# DNA 2: ATATTACATTTTTTAATTTTATATATATTTTTTTTT
# B28: GTGCAC_negctrl_site708 (dsDNA)
# DNA 1: TTCTATTCAAATGCAAAATTATTAAATAAAAAATAA
# DNA 2: TTATTTTTTATTTAATAATTTTGCATTTGAATAGAA
# B29: GTGCAC_negctrl_site324 (dsDNA)
# DNA 1: ATATGTAAAACTTCAAAAAAATATATTTTATGACGA
# DNA 2: TCGTCATAAAATATATTTTTTTGAAGTTTTACATAT
# B30: GTGCAC_site10010 (dsDNA)
# DNA 1: AACCATTGGGAAAGGGTGCACATATATATATATATA
# DNA 2: TATATATATATATATGTGCACCCTTTCCCAATGGTT
# B31: GTGCAC_site10453 (dsDNA)
# DNA 1: TATAAGTAGATAAGGGTGCACAATATAAATATATAG
# DNA 2: CTATATATTTATATTGTGCACCCTTATCTACTTATA
# B32: GTGCAC_site10047 (dsDNA)
# DNA 1: TATAATTTTTACTGGGTGCACTCGATATTTTAAATA
# DNA 2: TATTTAAAATATCGAGTGCACCCAGTAAAAATTATA
# B33: GTGCAC_negctrl_site315 (dsDNA)
# DNA 1: ATATACTATTAACCACATATGTGTGTTAATTTATAT
# DNA 2: ATATAAATTAACACACATATGTGGTTAATAGTATAT
# B34: GTGCAC_negctrl_site288 (dsDNA)
# DNA 1: TATTATTCATAATTTATCTTTTAAATTAAATCACAA
# DNA 2: TTGTGATTTAATTTAAAAGATAAATTATGAATAATA
# B35: GTGCAC_negctrl_site693 (dsDNA)
# DNA 1: TGGACCAAACGACAAAAAAAAAGCAGAAAACAAAAA
# DNA 2: TTTTTGTTTTCTGCTTTTTTTTTGTCGTTTGGTCCA
# B36: GTGCAC_negctrl_site11 (dsDNA)
# DNA 1: TCTTATAACAAAAAAAAATAAAAAATAAAACTATAT
# DNA 2: ATATAGTTTTATTTTTTATTTTTTTTTGTTATAAGA
# B37: GTGCAC_negctrl_site404 (dsDNA)
# DNA 1: AAAAAAAAAAAGAAGGAAACATTTGACCAAAAATAT
# DNA 2: ATATTTTTGGTCAAATGTTTCCTTCTTTTTTTTTTT
# B38: GTGCAC_site9987 (dsDNA)
# DNA 1: ATATCTTATAATACGGTGCACTTGACATGAACAACT
# DNA 2: AGTTGTTCATGTCAAGTGCACCGTATTATAAGATAT
# B39: GTGCAC_site9855 (dsDNA)
# DNA 1: TTTATTTTCCAAAGGGTGCACATAGTTAAAACGATA
# DNA 2: TATCGTTTTAACTATGTGCACCCTTTGGAAAATAAA
# B40: GTGCAC_site10157 (dsDNA)
# DNA 1: B39 DNA 1 with A28G
# DNA 2: B39 DNA 2 with T9C
# B41: GTGCAC_negctrl_site585 (dsDNA)
# DNA 1: TTTTGATAGAAGTGTTCTAGGAATTCAACTGTAATA
# DNA 2: TATTACAGTTGAATTCCTAGAACACTTCTATCAAAA
# B42: GTGCAC_negctrl_site248 (dsDNA)
# DNA 1: ACTACGTGTCAAAAATATTAATTACAAATGAATAAA
# DNA 2: TTTATTCATTTGTAATTAATATTTTTGACACGTAGT
# B43: GTGCAC_negctrl_site64 (dsDNA)
# DNA 1: TGCAAATTTAACAAAAAAAAAAAAAAAAAAAAAAAA
# DNA 2: TTTTTTTTTTTTTTTTTTTTTTTTGTTAAATTTGCA
# B44: GTGCAC_site9899 (dsDNA)
# DNA 1: CTTGTGCTTTATAGGGTGCACATTTTGTTTTGGTAA
# DNA 2: TTACCAAAACAAAATGTGCACCCTATAAAGCACAAG
# Molecular target: T1, SIP2 D1
# Assay: gcPBM; about 25 ug protein; PBS, 1% milk, 0.2 mg/ml BSA, salmon testes DNA, 0.03% Triton X-100
# Conditions: tags: N-terminal GST (pGEX-4T-1), kept; label: surface-attached array probe
row,Binder,binding signal
1,B1,"6.79 ln median PBM intensity, better of two orientations"
2,B2,"11.9 ln median PBM intensity, better of two orientations"
3,B3,"12.2 ln median PBM intensity, better of two orientations"
4,B4,"6.79 ln median PBM intensity, better of two orientations"
5,B5,"6.87 ln median PBM intensity, better of two orientations"
6,B6,"6.86 ln median PBM intensity, better of two orientations"
7,B7,"6.92 ln median PBM intensity, better of two orientations"
8,B8,"6.89 ln median PBM intensity, better of two orientations"
9,B9,"6.83 ln median PBM intensity, better of two orientations"
10,B10,"11.8 ln median PBM intensity, better of two orientations"
11,B11,"6.92 ln median PBM intensity, better of two orientations"
12,B12,"6.8 ln median PBM intensity, better of two orientations"
13,B13,"12.1 ln median PBM intensity, better of two orientations"
14,B14,"11.8 ln median PBM intensity, better of two orientations"
15,B15,"6.82 ln median PBM intensity, better of two orientations"
16,B16,"6.84 ln median PBM intensity, better of two orientations"
17,B17,"11.9 ln median PBM intensity, better of two orientations"
18,B18,"6.81 ln median PBM intensity, better of two orientations"
19,B19,"6.78 ln median PBM intensity, better of two orientations"
20,B20,"6.79 ln median PBM intensity, better of two orientations"
21,B21,"6.86 ln median PBM intensity, better of two orientations"
22,B22,"11.8 ln median PBM intensity, better of two orientations"

row,Binder,binding signal
1,B23,"6.82 ln median PBM intensity, better of two orientations"
2,B24,"6.92 ln median PBM intensity, better of two orientations"
3,B25,"6.78 ln median PBM intensity, better of two orientations"
4,B26,"6.85 ln median PBM intensity, better of two orientations"
5,B27,"6.85 ln median PBM intensity, better of two orientations"
6,B28,"6.9 ln median PBM intensity, better of two orientations"
7,B29,"6.82 ln median PBM intensity, better of two orientations"
8,B30,"12.2 ln median PBM intensity, better of two orientations"
9,B31,"12.1 ln median PBM intensity, better of two orientations"
10,B32,"12.2 ln median PBM intensity, better of two orientations"
11,B33,"6.87 ln median PBM intensity, better of two orientations"
12,B34,"6.81 ln median PBM intensity, better of two orientations"
13,B35,"6.81 ln median PBM intensity, better of two orientations"
14,B36,"6.87 ln median PBM intensity, better of two orientations"
15,B37,"6.91 ln median PBM intensity, better of two orientations"
16,B38,"11.9 ln median PBM intensity, better of two orientations"
17,B39,"11.9 ln median PBM intensity, better of two orientations"
18,B40,"11.9 ln median PBM intensity, better of two orientations"
19,B41,"6.81 ln median PBM intensity, better of two orientations"
20,B42,"6.92 ln median PBM intensity, better of two orientations"
21,B43,"6.92 ln median PBM intensity, better of two orientations"
22,B44,"11.9 ln median PBM intensity, better of two orientations"
